# Assay results reported in patent US20150315289A1.
# Assays:
# [1] = target: human MUC5AC (native mucin) (human) (UniProt P98088); assay: ELISA on target mucin antigen
# [2] = target: human MUC5AC (native mucin) (human) (UniProt P98088); assay: inhibition EIA on CPM1-coated plates; competitor hPAM4 at […]
# [3] = target: human MUC5AC (native mucin) (human) (UniProt P98088); assay: sandwich EIA: hPAM4 capture of antigen from CPM1, murine MAb probe at 10 µg/mL
# [4] = target: human MUC5AC (native mucin) (human) (UniProt P98088); assay: binding of radioiodinated TF10 to MUC5AC (not shown)
# [5] = target: human MUC5AC (native mucin) (human) (UniProt P98088); assay: elution analysis of 111In-IMP-288/TF10 with excess mucin
# [6] = target: IMP-288 di-HSG hapten-peptide; assay: elution analysis of radiolabeled peptide with TF10 (not shown)
substance,measurement,setting,value
PAM4-F(ab′)2,EC50,[1],1.83 nM
45M1 anti-MUC5AC mouse monoclonal antibody,ICmax (maximal inhibition),[2],25.5%
same,Kd,[3],14.3 mg/L
TF10 bispecific ([hPAM4]2 x h679) DNL construct (bispecific antibody),immunoreactive fraction,[4],87%
same,percent of TF10-bound 111In-IMP-288 eluting at higher molecular weight with excess mucin,[5],92%
same,percent of 111In-IMP-288 bound,[6],90%
